Molecular target: the molecule itself
Assay: crystal structure; apo-hIRE1 (no nucleotide), hanging-drop vapor diffusion, 18-20% PEG3350, 0.2 M sodium malonate, Bis-Trispropane pH 6.5, 18°C; 2 molecules in the asymmetric unit

B1: cytoplasmic region of human IRE1 (residues 547-977) (domain or fragment, UniProt O75460 547-977, looked up)
chain: GSSPSLEQDDGDEETSVVIVGKISFCPKDVLGHGAEGTIVYRGMFDNRDVAVKRILPECFSFADREVQLLRESDEHPNVIRYFCTEKDRQFQYIAIELCAATLQEYVEQKDFAHLGLEPITLLQQTTSGLAHLHSLNIVHRDLKPHNILISMPNAHGKIKAMISDFGLCKKLAVGRHSFSRRSGVPGTEGWIAPEMLSEDCKENPTYTVDIFSAGCVFYYVISEGSHPFGKSLQRQANILLGACSLDCLHPEKHEDVIARELIEKMIAMDPQKRPSAKHVLKHPFFWSLEKQLQFFQDVSDRIEKESLDGPIVKQLERGGRAVVKMDWRENITVPLQTDLRKFRTYKGGSVRDLLRAMRNKKHHYRELPAEVRETLGSLPDDFVCYFTSRFPHLLAHTYRAMELCSHERLFQPYYFHEPPEPQPPVTPDAL
stoichiometry N: 2
